A short description of this data set: yeast display, Sf9 membrane polyspecificity reagent, FACS + sequencing; frameworks hold sequencing errors. The method, boiled down: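 A nanobody's polyreactivity label depends on the gate it was sorted from. Yeast display cells were stained with 10% biotinylated, detergent-solubilized Sf9 membrane reagent for 1 hour at 4 °C, enriched on streptavidin microbeads and sorted by FACS. The low and high (top ~1%) gates were set on anti-HA fluorescence for expression and streptavidin fluorescence for reagent binding.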
For the sequence “QVQLVESGGGLFKAGGSLRLSCAASGRTFRGYTMGWYRQAPGKERELVAAITSGTRTNYADSVKGRFTISRDNAKNTVYLQMNSLKPEYTAVYYGAARDYIRPRYRPYDYWGHGTQVTVSS”, the “polyreactivity (PSR sort gate)” value was “high polyreactivity”. Under “QVQLVESGGGLVQSGGSLRLSCAASGFTFYFNAMGWYRPAPGKERELVAAIRWSGGNTYYADSVKGRFTISRDNAKNTVYLQMNSLKPEDTAVYYCNKDPWHDTYSVKEYDYWGQGTQVTVSS” stands “low polyreactivity”; under “QVQLVESGGGLVQAGGSLRLICAASGSTFDQNVMGWYRQAPGKDRELVGTINFSGDSTYYADSVKGRFTISRDNAKNTVYLQMNSLKPEDPAVYYCAVDWGEYIDTSVKRDISYYWGQGTQVTVSS”, “low polyreactivity”; under “QVQLVESGGGLVQAGGSLRLSCAASGFTFVTYAMGWSSQAPGKERELVATISWGVGGSYYADSVKGRFTISRDNAKNTVYLPMNSLKPEDTAVYYCNARHTWHQTYDYWGQGTQVTVSS”, “low polyreactivity”. Regarding “QVQLVESGGGLVQAGGSLRLSCAASGRTFNSTAMGWYRQAPGKERELVAAITRSGGSTYYADSVKGRFTISRDYAKNTVYLQMISQKPEDTAVNYCITTRWTQRTSFDYWGQGTQVTVSS”, the “polyreactivity (PSR sort gate)” value is “low polyreactivity”. Regarding “QVQLVESGGGLVQAGGSLRLSCAASGLIFYDNMGWYRQAPGKERELVAAISSSGGSRTYAYSVKGRFTISRDNAKNTVYFQMNSLKPEDTEVYYCALDKHYYGRYGVTYDYDYWGQGTQVTVSS”, the “polyreactivity (PSR sort gate)” value is given as “low polyreactivity”. The entry for “QVQLVESGGGLVQAGGSLRLSCAASGNIFWRYAMGWYRQAPGKERELVAAISRRGGSTYYADSVKGRFTISRDNAKNTVYLQMNSLKPEDTAVYYCAASHSTWFSDPYGYWGQGTQVTVSS” is “low polyreactivity”; for “QFQLVESGGGLVQAGGSLRLSCAASGIIFNRNVMRWYRQAPAKERELVAAITWGGGRTYYADSVKGRFTISRDNAKNTVYLQMNSLIPVDTAVYFCAARSRGSSRFDYWGQGTQVTVSS” it is “high polyreactivity”. In the case of “QVQLVESGGGLVQAGGTLRLSCAATGRTFAPNSMGWYRHAPGKERELFAAISWSGTSTYYADSVKGRFTISRDNAKNTVYLQMNSLKPEDTAVYYCAADLEGRVGSPWTYDYWGQGTQVTVSS”, the “polyreactivity (PSR sort gate)” value is recorded as “low polyreactivity”.

The values above are taken from the nanobody polyreactivity screen of Harvey et al. (2022).
